Experimental data reported in patent publication US20210253718A1 (MODMAB THERAPEUTICS, published 2021).

T1: FZD3 cysteine-rich domain (CRD), MYC-tagged and GPI-anchored on CHO cells (human, UniProt Q9NPG1 24-150, GPI anchor)
T1 construct: domain: cysteine-rich domain (CRD); also called FZD3 CRD; CHO-myc-FZDGPI; not shown: MYC tag and GPI anchor signal
T1 sequence (looked up): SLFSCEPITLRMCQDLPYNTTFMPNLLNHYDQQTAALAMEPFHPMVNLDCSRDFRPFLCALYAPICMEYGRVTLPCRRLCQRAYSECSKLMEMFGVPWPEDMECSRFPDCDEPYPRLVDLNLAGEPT

T2: FZD4 cysteine-rich domain (CRD), MYC-tagged and GPI-anchored on CHO cells (human, UniProt Q9ULV1 42-167, GPI anchor)
T2 construct: also called FZD4 CRD; CHO-myc-FZDGPI; not shown: MYC tag and GPI anchor signal
T2 sequence: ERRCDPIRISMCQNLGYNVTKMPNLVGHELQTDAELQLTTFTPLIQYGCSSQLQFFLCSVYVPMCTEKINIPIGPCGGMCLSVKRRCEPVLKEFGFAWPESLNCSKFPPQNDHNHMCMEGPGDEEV

T3: FZD5 cysteine-rich domain (CRD), MYC-tagged and GPI-anchored on CHO cells (human, UniProt Q13467 29-156, GPI anchor)
T3 construct: also called FZD5 CRD; CHO-myc-FZDGPI; not shown: MYC tag and GPI anchor signal
T3 sequence: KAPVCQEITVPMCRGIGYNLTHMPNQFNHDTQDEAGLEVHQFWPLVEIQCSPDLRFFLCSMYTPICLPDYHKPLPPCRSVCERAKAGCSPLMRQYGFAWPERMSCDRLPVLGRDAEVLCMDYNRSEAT

T4: FZD6 cysteine-rich domain (CRD), MYC-tagged and GPI-anchored on CHO cells (human, UniProt O60353 20-146, GPI anchor)
T4 construct: also called FZD6 CRD; CHO-myc-FZDGPI; not shown: MYC tag and GPI anchor signal
T4 sequence: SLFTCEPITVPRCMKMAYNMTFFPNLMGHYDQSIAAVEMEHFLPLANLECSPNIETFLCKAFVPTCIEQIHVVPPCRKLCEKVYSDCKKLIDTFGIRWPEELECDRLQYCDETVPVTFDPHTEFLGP

T5: FZD8 cysteine-rich domain (CRD), MYC-tagged and GPI-anchored on CHO cells (human, UniProt Q498S8 31-155 (rat entry), GPI anchor)
T5 construct: also called FZD8 CRD; CHO-myc-FZDGPI; not shown: MYC tag and GPI anchor signal
T5 sequence: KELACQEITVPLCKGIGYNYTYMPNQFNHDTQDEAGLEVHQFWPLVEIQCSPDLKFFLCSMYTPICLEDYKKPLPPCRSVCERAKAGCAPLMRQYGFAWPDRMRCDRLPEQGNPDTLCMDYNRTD

T6: FZD9 cysteine-rich domain (CRD), MYC-tagged and GPI-anchored on CHO cells (human, UniProt O00144 35-161, GPI anchor)
T6 construct: also called FZD9 CRD; CHO-myc-FZDGPI; not shown: MYC tag and GPI anchor signal
T6 sequence: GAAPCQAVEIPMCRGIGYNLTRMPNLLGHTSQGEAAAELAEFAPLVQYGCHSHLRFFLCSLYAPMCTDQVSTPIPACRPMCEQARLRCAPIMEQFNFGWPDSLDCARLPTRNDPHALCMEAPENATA

T7: FZD10 cysteine-rich domain (CRD), MYC-tagged and GPI-anchored on CHO cells (human, UniProt Q9ULW2 30-156, GPI anchor)
T7 construct: also called FZD10 CRD; CHO-myc-FZDGPI; not shown: MYC tag and GPI anchor signal
T7 sequence: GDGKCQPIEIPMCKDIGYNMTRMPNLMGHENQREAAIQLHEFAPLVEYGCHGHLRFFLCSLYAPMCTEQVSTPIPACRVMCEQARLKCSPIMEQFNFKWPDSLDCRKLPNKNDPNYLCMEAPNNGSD


Assays:
[1] = molecular target: T1, FZD3 cysteine-rich domain (CRD), …; test: flow cytometry, CHO-CRD cells;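 also: flow cytometry of Fab binding to CHO cells overexpressing a Frizzled CRD, with binding defined as median fluorescence over twice that of CHO cells lacking any Frizzled CRD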
Description: (§1) Binding was measured via flow cytometry analysis of CHO cells overexpressing CRD of FZD1, FZD2, FZD3, FZD4, FZD5, FZD6, FZD7, FZD8, FZD9 or FZD10. Median fluorescence values are shown.

[2] = molecular target: T2, FZD4 cysteine-rich domain (CRD), …; test: flow cytometry, CHO-CRD cells;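 also: flow cytometry of Fab binding to CHO cells overexpressing a Frizzled CRD, with binding defined as median fluorescence over twice that of CHO cells lacking any Frizzled CRD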
Description: as §1

[3] = molecular target: T3, FZD5 cysteine-rich domain (CRD), …; test: flow cytometry, CHO-CRD cells;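 also: flow cytometry of Fab binding to CHO cells overexpressing a Frizzled CRD, with binding defined as median fluorescence over twice that of CHO cells lacking any Frizzled CRD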
Description: as §1

[4] = molecular target: T4, FZD6 cysteine-rich domain (CRD), …; test: flow cytometry, CHO-CRD cells;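 also: flow cytometry of Fab binding to CHO cells overexpressing a Frizzled CRD, with binding defined as median fluorescence over twice that of CHO cells lacking any Frizzled CRD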
Description: as §1

[5] = molecular target: T5, FZD8 cysteine-rich domain (CRD), …; test: flow cytometry, CHO-CRD cells
Description: as §1

[6] = molecular target: T6, FZD9 cysteine-rich domain (CRD), …; test: flow cytometry, CHO-CRD cells
Description: as §1

[7] = molecular target: T7, FZD10 cysteine-rich domain (CRD), …; test: flow cytometry, CHO-CRD cells
Description: as §1

[8] = molecular target: T1, FZD3 cysteine-rich domain (CRD), …; test: immunofluorescence, CHO-CRD cells
[9] = molecular target: T2, FZD4 cysteine-rich domain (CRD), …; test: immunofluorescence, CHO-CRD cells
[10] = molecular target: T4, FZD6 cysteine-rich domain (CRD), …; test: immunofluorescence, CHO-CRD cells
[11] = molecular target: T5, FZD8 cysteine-rich domain (CRD), …; test: immunofluorescence, CHO-CRD cells
[12] = molecular target: T6, FZD9 cysteine-rich domain (CRD), …; test: immunofluorescence, CHO-CRD cells
[13] = molecular target: T7, FZD10 cysteine-rich domain (CRD), …; test: immunofluorescence, CHO-CRD cells
[14] = molecular target: FZD1 cysteine-rich domain (CRD), MYC-tagged and GPI-anchored on CHO cells (human); test: flow cytometry, CHO-CRD cells
Description: as §1

[15] = molecular target: FZD2 cysteine-rich domain (CRD), MYC-tagged and GPI-anchored on CHO cells (human, UniProt Q14332 35-161); test: flow cytometry, CHO-CRD cells
Description: as §1

[16] = molecular target: FZD7 cysteine-rich domain (CRD), MYC-tagged and GPI-anchored on CHO cells (human, UniProt O75084 45-169); test: flow cytometry, CHO-CRD cells
Description: as §1

median fluorescence [1]	median fluorescence [2]	median fluorescence [3]	median fluorescence [4]	median fluorescence [5]	median fluorescence [6]	median fluorescence [7]	binding result [8]	binding result [9]	binding result [10]	binding result [11]	binding result [12]	binding result [13]	median fluorescence [14]	median fluorescence [15]	median fluorescence [16]	Binder
3.22	4.57	25.5	2.89	5.52	3.13	3.08	no binding	no binding	no binding	no binding	no binding	no binding				Fab-2908 (Fab, V domains shown, Fab; also called Fv-2908) VH: EVQLVESGGGLVQPGGSLRLSCAASGFNFSSSSIHWVRQAPGKGLEWVAYIYPSYSYTYYADSVKGRFTISADTSKNTAYLQMNSLRAEDTAVYYCARAYYGHFHAMDYWGQGTLVTVSS VL: DIQMTQSPSSLSASVGDRVTITCRASQSVSSAVAWYQQKPGKAPKLLIYSASSLYSGVPSRFSGSRSGTDFTLTISSLQPEDFATYYCQQSSYSLITFGQGTKVEIK
4.96	6.21	20.5	3.68	7.43	4.1	3.96	no binding	no binding	no binding	no binding	no binding	no binding	38.2	22.7	43.3	Fab-2911 (Fab, V domains shown, Fab; also called Fv-2911) VH: EVQLVESGGGLVQPGGSLRLSCAASGFNIYYSSMHWVRQAPGKGLEWVAYIYPYSGYTSYADSVKGRFTISADTSKNTAYLQMNSLRAEDTAVYYCARYFWWYGFDYWGQGTLVTVSS VL: DIQMTQSPSSLSASVGDRVTITCRASQSVSSAVAWYQQKPGKAPKLLIYSASSLYSGVPSRFSGSRSGTDFTLTISSLQPEDFATYYCQQGPWYPFTFGQGTKVEIK
